Drawing on patent US20110136237, this text covers activity for two substances.

The test system of data set [1] is Cre recombinase (bacteriophage P1). Kind of data set: cell_activity. The following applies: positive control, S. pombe, day 7.
In data set [2] the target is T1, phiC31 integrase (Streptomyces bacteriophage phiC31) (UniProt Q9T221).
T1 sequence: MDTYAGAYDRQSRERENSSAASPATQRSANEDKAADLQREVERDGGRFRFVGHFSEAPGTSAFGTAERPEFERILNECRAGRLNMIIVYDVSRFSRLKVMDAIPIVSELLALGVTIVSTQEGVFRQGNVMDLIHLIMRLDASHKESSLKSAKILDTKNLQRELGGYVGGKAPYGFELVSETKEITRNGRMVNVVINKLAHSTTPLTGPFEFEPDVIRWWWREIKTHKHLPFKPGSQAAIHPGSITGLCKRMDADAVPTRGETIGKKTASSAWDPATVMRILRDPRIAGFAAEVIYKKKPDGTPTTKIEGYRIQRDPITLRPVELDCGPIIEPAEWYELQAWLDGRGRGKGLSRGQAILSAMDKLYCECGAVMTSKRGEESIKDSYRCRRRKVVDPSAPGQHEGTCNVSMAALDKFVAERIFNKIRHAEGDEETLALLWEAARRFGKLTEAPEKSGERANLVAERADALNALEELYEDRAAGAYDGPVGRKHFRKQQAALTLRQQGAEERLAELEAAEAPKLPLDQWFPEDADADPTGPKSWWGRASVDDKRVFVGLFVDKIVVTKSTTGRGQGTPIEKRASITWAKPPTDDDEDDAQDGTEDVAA
In words: cell_activity. The following applies: attP x attB, S. pombe, day 7.

As for lox, in data set [1], the activity stood at 100 % excision.
phiC31 attP x attB registered an activity in data set [2] of 80 % excision.
